Values quoted from earlier work in US20110294730A1, “METHOD OF TREATING GLAUCOMA AND INTRAOCULAR HYPERTENSION” (priority 2010, published 2011).

System: trabecular meshwork

B1: IL-Ia: exogenous growth factor (protein, UniProt P01583 113-271, looked up)
Interleukin-1 alpha: SAPFSFLSNVKYNFMRIIKYEFILNDALNQSIIRANDQYLTAAALHNLDEAVKFDMGAYKSSKDDAKITVILRISKTQLYVTAQDEDQPVLLKEMPEIPKTITGSETNLLFFWETHGTKNYFTSVAHPNLFIATKQDYWVCLAGGPPSITDFQILENQA
extracellular acidification: significantly stimulated
